Entries after “also recorded” stand apart in the source; their conditions may differ.
How the values were obtained:
[1] = Storage stability in PBS analysed by SDS-PAGE; assay type: physicochemical
Description: “Improved storage stability” in the context of the present invention means the reduction of the amounts of a degradation band, preferably the reduction of the amount of degradation products, as detected by a Coomassie-stained SDS-PAGE occurring after storage at 40° C. for 1 month at 10 mg/ml in PBS, by at least 5%, 10%, 15%, 20%, 25%, 30%, 35%, 40%, 45%, 50%, or 50%. Methods to assess storage stability by SDS-PAGE are well known to the person skilled in the art. Examples of designed ankyrin repeat domains and recombinant binding proteins with improved storage stability properties are given in Examples 2 and 3.
Protein #13-His, Protein #14-His and Protein #15-His were prepared as described in Example 1, and samples were concentrated to 10 mg/ml in PBS. Protein #14-His and Protein #15-His where then stored for 1 month at −80° C. or at 40° C. in glass vials, followed by analysis on SDS 15% PAGE. […] These findings illustrate that Protein #14-His has improved storage stability compared to Proteins #13-His and Protein #15-His.
A storage stability improvement is also observed, when testing the storage stability of Protein #21 and Protein #22 (recombinant binding proteins consisting of the amino acid sequences corresponding to SEQ ID NOs: 21 and 22, respectively). Protein #21 and Protein #22 are prepared as described in Example 1, samples are concentrated to 10 mg/ml in PBS and stored for 1 month at −80° C. in or at 40° C. in glass vials, followed by analysis on standard size-exclusion chromatography.

[2] = Thermal unfolding, midpoint of thermal denaturation; assay type: physicochemical; conditions: pH 6.0
Text: Degradation may for example occur in the vicinity of any one of the 5 asparagines (including asparagine-glycine dipeptides), 13 aspartates, or 10 glycines of SEQ ID NO: 13, amongst additional potential degradation sites. SEQ ID NO: 13 further comprises a number of potential oxidation sites. […] When mutating aspartate at position 80 of SEQ ID NO: 13 to glutamate, a functional designed ankyrin repeat domain with binding specificity for serum albumin was generated, corresponding to SEQ ID NO: 14, which does show a marked improvement in storage stability (Example 3; FIGS. 2A and 2B).

[3] = test system: BT474 human breast carcinoma cells; assay: BT474 breast cancer tumor xenograft mouse model; assay type: in vivo
Description: Protein #21-His, Protein #23-His, Protein #24-His, Protein #25-His were expressed and purified as described in Example 1. […] BT474 breast cancer tumor xenograft mouse models were essentially performed as follows using procedures well known to the person skilled in the art: BT474 human breast carcinoma cells were cultured, resuspended, and 2*10^7 cells in 200 μl RPMI 1640 medium containing 50:50 matrigel (BD Biosciences) per mouse were injected into the right flank of female Balb/c nude mice. […] Tumor volumes were measured for 32 days.
In a similar study using BT474 cells (identical setup and procedure; all 35 mg/kg doses), Protein #21-His was compared to Protein #23-His, Protein #24-His, and Protein #25-His.

[4] = Pharmacokinetic analysis in cynomolgus monkey; assay type: in vivo
Description: The measurements shown in this example are the result of a half-life engineering effort as described in Example 11. Protein #21-His, Protein #23-His, and Protein #24-His were expressed and purified as described in Example 1. The pharmacokinetic properties of the proteins were assessed in cynomolgus monkey. Proteins were administered via intravenous infusion for 30 min at a target dose level of between 1 mg/kg to cynomolgus monkeys. Blood samples were collected pre-dose and again at selected time points, for example 5 min, 10 min, 0.5 hours, 1 hour, 2 hours, 4 hours, 8 hours, 12 hours, 24 hours, 48 hours, 72 hours, 96 hours, 120 hours, 144 hours, 168 hours, 192 hours, 216 hours, and 240 hours post-end of infusion (i.e. post-injection). The blood samples were allowed to stand at room temperature and were centrifuged to generate serum, followed by storage at −80° C. pending analyses. Pharmacokinetic parameters were determined using procedures well known to the person skilled in the art. Serum concentrations of proteins were determined by sandwich ELISA using a rabbit monoclonal anti-designed ankyrin repeat domain antibody as capture reagent and murine monoclonal anti-designed ankyrin repeat domain antibody as detection reagent, and using a standard curve. Pharmacokinetic parameters were determined using standard software such as Phoenix WinNonLin (Certara, Princeton, USA) or Graph Pad Prism (GraphPad Software, La Jolla, USA) and standard analyses such as non-compartmental analyses. […] Target mediated clearance is well-known to the person skilled in the art and is known from e.g. antibodies targeting HER2.
Similarly, Protein #21-His was expressed and purified as described in Example 1. The pharmacokinetic properties of the proteins were assessed in cynomolgus monkey as described above at 1 mg/kg, 5 mg/kg and 10 mg/kg.
Similar results are observed when testing Protein #21 (expressed and purified as described in Example 1). The pharmacokinetic properties of the proteins are assessed in cynomolgus monkey as described above at 1 mg/kg, 10 mg/kg and 100 mg/kg. Pharmacokinetic parameters are evaluated as described above.
(§1) For the studies in this example Protein #21-His, Protein #24-His, Protein #28-His, Protein #29-His, and Protein #30-His were prepared according to Example 1. Protein #28-His was additionally PEGylated using a 40 kDa PEG moiety (NOF Sunbright GL2-400MA) by maleimid coupling of the PEG-moiety onto the free C-terminal cysteine of Protein #28-His, followed by purification to homogeneity using standard purification methods, procedures well known to the person skilled in the art. Pharmacokinetic analyses in mouse or cynomolgus monkey were performed as described in Examples 8 and 9.

[5] = Pharmacokinetic analysis in mouse; assay type: in vivo
Description: The measurements shown in this example are the result of a half-life engineering effort as described in Example 11. Protein #21-His and Protein #23-His were expressed and purified as described in Example 1. The pharmacokinetic properties of the His-tagged proteins were assessed in mouse as described elsewhere (Zahnd, C., Kawe, M., Stumpp, M. T., de Pasquale, C., Tamaskovic, R., Nagy-Davidescu, G., Dreier, B., Schibli, R., Binz, H. K., Waibel, R., Plückthun, A., Cancer Res. 70, 1595-1605, 2010). […] Having SEQ ID NO: 16 present in the recombinant binding protein thus appears to be more favorable than having SEQ ID NO: 18 present.
Polypeptide linkers that link protein domains are well-known to the person skilled in the art. Gly-Ser-rich linkers are well-known from single-chain Fv antibody fragments, where they have proven to be most appropriate to link the two Fv polypeptide chains. […] Protein #26-His and Protein #27-His, were expressed and purified as described in Example 1. Pharmacokinetic analyses in mouse were performed as described in Example 8.
as §1

| Molecule | stability upon storage at −80° C. ([1]; 10 mg/ml in PBS, 1 month at −80° C., SDS 15% PAGE) | reduction of degradation products compared to Protein #15-His ([1]; 10 mg/ml in PBS, glass vials, 1 month at 40° C., SDS 15% PAGE) [%] | reduction of degradation products compared to Protein #13-His ([1]; 10 mg/ml in PBS, one week at 40° C., SDS 15% PAGE) [%] | reduction of degradation products compared to Protein #13-His ([1]; 10 mg/ml in PBS, one week at 60° C., SDS 15% PAGE) [%] | midpoint of thermal denaturation Tm [2] [°C] | degradation upon prolonged incubation ([1]; in PBS at 10 mg/ml at 40° C.) | inhibition of tumor growth ([3]; Protein #21-His 35 mg/kg, Trastuzumab 10 mg/kg, i.v. Q3Dx7, tumor volumes measured for 32 days, FIG. 4A) | tumor suppression compared to Protein #24-His ([3]; after 32 days of treatment, FIG. 4B) | tumor suppression compared to other recombinant binding proteins ([3]; all 35 mg/kg doses, day 18 of treatment, FIG. 4B) | concentration below which target-mediated clearance is observed [4] | terminal half-life ([4]; 1 mg/kg, intravenous infusion) [h] | % ID remaining after 48 hours [5] [% ID] | terminal half-life [5] [h] |
| --- | --- | --- | --- | --- | --- | --- | --- | --- | --- | --- | --- | --- | --- |
| Protein #14-His: SEQ ID NO: 14 with a His-tag; stability-improved serum albumin binding designed ankyrin repeat domain, aspartate 80 of SEQ ID NO: 13 mutated to glutamate (protein, His-tag; Designed ankyrin repeat domain) GSDLGKKLLEAARAGQDDEVRELLKAGADVNAKDYFSHTPLHLAARNGHLKIVEVLLKAGADVNAKDFAGKTPLHLAANEGHLEIVEVLLKAGADVNAQDIFGKTPADIAADAGHEDIAEVLQKAA | equivalent stability | > 50 | > 50 | > 50 | 89.5 | – | – | – | – | – | – | – | – |
| Protein #13-His: SEQ ID NO: 13 with a His-tag; designed ankyrin repeat domain with binding specificity for serum albumin (WO2012/069654) (protein, His-tag; Designed ankyrin repeat domain) GSDLGKKLLEAARAGQDDEVRELLKAGADVNAKDYFSHTPLHLAARNGHLKIVEVLLKAGADVNAKDFAGKTPLHLAANDGHLEIVEVLLKAGADVNAQDIFGKTPADIAADAGHEDIAEVLQKAA | – | – | – | – | 86 | degrade | – | – | – | – | – | – | – |
| Protein #21-His: SEQ ID NO: 21 with a His-tag (SEQ ID NO: 1) fused to its N terminus (protein, Protein comprising four designed ankyrin repeat domains) MRGSHHHHHHGSDLGKKLLEAARAGQDDEVRELLKAGADVNAKDYFSHTPLHLAARNGHLKIVEVLLKAGADVNAKDFAGKTPLHLAANEGHLEIVEVLLKAGADVNAQDIFGKTPADIAADAGHEDIAEVLQKAAGSPTPTPTTPTPTPTTPTPTPTGSDLGIKLLFAAAKGQDDEVRELLKAGADVNAKDFQGVTPLHIAAQSGHLEIVEVLLKAGADVNAKDVTGDTPLHLAAQHGHLEIVEVLLKAGADVNAQDERGWTPADLAADWGHEDIAEVLQKAAGSPTPTPTTPTPTPTTPTPTPTGSDLGKKLLEAARAGQDDEVRELLKAGADVNAKDEYGLTPLYLATAHGHLEIVEVLLKAGADVNAVDAIGFTPLHLAAFIGHLEIAEVLLKAGADVNAQDKFGKTPADIAAGAGNEDIAEVLQKAAGSPTPTPTTPTPTPTTPTPTPTGSDLGKKLLEAARAGQDDEVRELLKAGADVNAKDYFSHTPLHLAARNGHLKIVEVLLKAGADVNAKDFAGKTPLHLAANEGHLEIVEVLLKAGADVNAQDIFGKTPADIAADAGHEDIAEVLQKAA | – | – | – | – | – | – | more efficacious in inhibiting tumor growth than Trastuzumab | significantly better tumor suppression than Protein #24-His | more efficacious in suppressing tumors than Protein #23-His, Protein #24-His, or Protein #25-His; also recorded: significantly more efficacious in inhibiting tumor growth than Protein #24-His | below 100 nM | 47 | 19.5 | 30.4 |

— patent US20210130420A1, “RECOMBINANT BINDING PROTEINS TARGETING HER2 AND SERUM ALBUMIN, AND THEIR USES” (Molecular Partners AG, priority 2016, published 2021)
